1 protein from PMC10193809, “A small protein coded within the mitochondrial canonical gene nd4 regulates mitochondrial bioenergetics” (BMC Biology, 2023) can be followed below.

This series concerns the molecule itself. Description: cross-linking; 3 µg synthetic MTALTND4 in 20 µl PBS 1x with 0%, 0.5% or 1% paraformaldehyde, 30 °C, 10 min; tricine-SDS-PAGE, Coomassie stain.

B1: MTALTND4 (mitochondrial alternative ND4 protein), complete synthetic peptide (peptide)
chain: MRHNYNKLHLPTTNRPKIAHCMLFNQPHSPRSNSHSHPNPLKLHRRSHSHNRPRAYILITILPSKLKLRTHSQSHHNPLSRTSNSTPTNSFLMTSSKPR
notes: M.W. 11,532.06 g/mol as printed in the methods; also called MTALND4; synthetic MTALTND4; source: synthetic peptide (LifeTein; purity verified by HPLC by the supplier)
With B1, the “stoichiometry N” value is 2.
